Results taken from PMC8278646 (Microbial Cell Factories, 2021).

What was measured:
[1] = target: T1, lysozyme from chicken egg white (chicken, UniProt P00698); test: ELISA; antigen coated on MaxiSorp plates (5 ug/mL, carbonate buffer pH 9.6); antibody fragments purified from culture supernatant by cobalt-based immunoprecipitation, serially diluted; detection by anti-6x-His-tag antibody, OD450; room temperature; settings: both partners purified
T1 construct: lysozyme C from chicken egg white; source: bought: Sigma-Aldrich

[2] = target: T2, lysozyme from chicken egg white (Lyz, with C-FLAG-tag) (chicken, UniProt P00698); test: pull-down; Nan-His6 from culture supernatant held on cobalt-based Dynabeads and washed; supernatant with Lyz-FLAG (concentrated eight times) added in pull-down buffer (sodium phosphate pH 7.4, NaCl, Tween-20), 4 C, 30 min; imidazole elution; SDS-PAGE and anti-FLAG western blot; settings: one partner purified
T2 construct: lysozyme from chicken egg white, synthesised codon-optimised gene with an alpha-factor leader; band of 15 kDa; probably the mature lysozyme behind the leader; A spacer EEGEPK may stand at the N-terminus; source: S. cerevisiae, secreted with alpha-factor leader; culture supernatant concentrated eight times; not shown: FLAG, C-terminal, kept
T2 sequence (P00698 19-147): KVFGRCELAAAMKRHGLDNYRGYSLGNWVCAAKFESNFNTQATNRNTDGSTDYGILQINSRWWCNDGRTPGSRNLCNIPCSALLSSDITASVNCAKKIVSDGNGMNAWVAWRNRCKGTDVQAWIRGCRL

T1 sequence (P00698 19-147): as above

- binding result [1]: binds
- binding result [2]: binds
B1: Nanobody (Nan, Camelid), single V-type domain against lysozyme (VHH)
VHH: DVQLQASGGGSVQAGGSLRLSCAASGYTIGPYCMGWFRQAPGKEREGVAAINMGGGITYYADSVKGRFTISQDNAKNTVYLLMNSLEPEDTAIYYCAADSTIYASYYECGHGLSTGGYGYDSWGQGTQVTVSS
notes: camelid VhH against lysozyme, 17 kDa; also called VhH; source: S. cerevisiae HA (also LA, MA), secreted with alpha-factor leader; used as culture supernatant and purified from it by cobalt-based immunoprecipitation; not shown: His6, C-terminal, kept
